What was measured:
[1] = molecular target: T1, Presegetalin A1[14,32] P16p W18A
T1 chain: GVPVAAFQAKDVENASAPV

[2] = molecular target: T2, Presegetalin D1[14,31]P20Q
T2 chain: GLSFAFQAKDAENASSPV

[3] = molecular target: T3, Presegetalin A1[14,32] ins 16A17
T3 chain: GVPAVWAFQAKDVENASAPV

Presegetalin F1[14,38] = molecular target: T4, Presegetalin F1[14,38]
T4 chain: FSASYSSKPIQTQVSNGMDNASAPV

[4] = molecular target: T5, Dianthus Precursor A[14,33]
T5 chain: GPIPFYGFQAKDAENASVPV

Presegetalin A1[14,30] = molecular target: T6, Presegetalin A1[14,30]
T6 chain: GVPVWAFQAKDVENAPV

[5] = molecular target: T7, Presegetalin A1[14,32]W18w
T7 chain: GVPVWAFQAKDVENASAPV

Presegetalin A1[14,19] = molecular target: T8, Presegetalin A1[14,19]
T8 chain: GVPVWA

[6] = molecular target: T9, Presegetalin A1[14,32] P16p W18a
T9 chain: GVPVAAFQAKDVENASAPV

[7] = molecular target: T10, Presegetalin A1[14,32]V32A
T10 chain: GVPVWAFQAKDVENASAPA

B1: Saponaria vaccaria PCY1 (recombinant, N-terminal His6-tag, expressed in E. coli from pCB008) (protein)
chain: MATSGFSKPLHYPPVRRDETVVDDYFGVKVADPYRWLEDPNSEETKEFVDNQEKLANSVLEECELIDKFKQKIIDFVNFPRCGVPFRRANKYFHFYNSGLQAQNVFQMQDDLDGKPEVLYDPNLREGGRSGLSLYSVSEDAKYFAFGIHSGLTEWVTIKILKTEDRSYLPDTLEWVKFSPAIWTHDNKGFFYCPYPPLKEGEDHMTRSAVNQEARYHFLGTDQSEDILLWRDLENPAHHLKCQITDDGKYFLLYILDGCDDANKVYCLDLTKLPNGLESFRGREDSAPFMKLIDSFDASYTAIANDGSVFTFQTNKDAPRKKLVRVDLNNPSVWTDLVPESKKDLLESAHAVNENQLILRYLSDVKHVLEIRDLESGALQHRLPIDIGSVDGITARRRDSVVFFKFTSILTPGIVYQCDLKNDPTQLKIFRESVVPDFDRSEFEVKQVFVPSKDGTKIPIFIAARKGISLDGSHPCEMHGYGGFGINMMPTFSASRIVFLKHLGGVFCLANIRGGGEYGEEWHKAGFRDKKQNVFDDFISAAEYLISSGYTKARRVAIEGGSNGGLLVAACINQRPDLFGCAEANCGVMDMLRFHKFTLGYLWTGDYGCSDKEEEFKWLIKYSPIHNVRRPWEQPGNEETQYPATMILTADHDDRVVPLHSFKLLATMQHVLCTSLEDSPQKNPIIARIQRKAAHYGRATMTQIAEVADRYGFMAKALEAPWID
B1 was tested, and the “CP (cyclic peptide product detected by LC/MS)” value (shortened to “CP”) [1] was “+”, the “LP (linear peptide product detected by LC/MS)” value (from here on “LP”) [1] was “-” and the “CP” value [2] was “+”. The “LP” value [2] was “-”, the “cyclic peptide product (LC/MS)” value [2] was “resulted in a 5 amino acid cyclic peptide product (cyclo(GLSFA); SEQ ID NO: 77), and the substituted glutamine was not part of the final cyclic peptide” and the “CP” value [3] was “+”. The “LP” value [3] was “+”, the “CP” value (Presegetalin F1[14,38]) was “+” and the “LP” value (Presegetalin F1[14,38]) was “-”. For the same protein, the “CP” value [4] was “+”, the “LP” value [4] was “-” and the “cyclic peptide product (LC/MS, MS/MS)” value [4] was “there was a small amount of cyclic peptide production from No. 43”. The “CP” value (Presegetalin A1[14,30]) was “-”, the “LP” value (Presegetalin A1[14,30]) was “+” and the “linear peptide formation (LC/MS, MS/MS)” value (Presegetalin A1[14,30]) was “showed linear peptide formation almost equivalent to the linear peptide formed from the WT substrate (No. 1)”. For the same protein, the “CP” value [5] was “+”, the “LP” value [5] was “+” and the “conversion to cyclic peptide (LC/MS)” value [5] was “the W18w mutant of presegetalin A1 was apparently relatively weakly converted to cyclic peptide”. The “CP” value (Presegetalin A1[14,19]) was “-”, the “CP” value [6] was “+” and the “LP” value [6] was “-”. The “CP” value [7] was “+”, the “LP” value [7] was “+” and the “linear segetalin A production relative to WT substrate” value [7] was “showed a relative increase in production of linear segetalin A”.

Reference: patent publication US20140363844
